For assay [1], the target named is T1, PCSK9 ProCat (31-449 of SEQ ID NO: 3) (human, UniProt Q8NBP7 27-449).
T1 construct: From PCSK9 449TEV after rTEV cleavage: GAMG-PCSK9 (31-449)-ENLYFQ; Written as one chain; autocatalysis between 152 and 153 splits pro-domain and catalytic domain; also called procat PCSK9; PCSK9 31-449
Description: domain binding ELISA (coated antibody captures the PCSK9 form; OD650). For orientation: ELISA stands for enzyme-linked immunosorbent assay.
Description: (§1) Clear, 96 well maxisorp plates (Nunc) were coated overnight with 2 ug/ml of various anti-PCSK9 antibodies diluted in PBS. Plates were washed thoroughly with PBS/0.05% Tween-20 and then blocked for two hours with 3% BSA/PBS.

Assay [2] addresses T2, PCSK9 V domain (450-692 of SEQ ID NO: 3) (human, UniProt Q8NBP7 450-692).
T2 construct: also called v-domain PCSK9
T2 chain: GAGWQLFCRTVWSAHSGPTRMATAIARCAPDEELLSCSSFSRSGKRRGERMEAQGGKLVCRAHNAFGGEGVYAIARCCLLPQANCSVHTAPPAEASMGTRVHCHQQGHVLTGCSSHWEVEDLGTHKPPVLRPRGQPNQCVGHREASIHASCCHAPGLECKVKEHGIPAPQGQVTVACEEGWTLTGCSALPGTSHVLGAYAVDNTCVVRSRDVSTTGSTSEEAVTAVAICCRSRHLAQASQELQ
The description is as above.
Description: as §1

B1: 13H1 (antibody, V domains shown)
VH: QVQLQQSGPGLVKPSQTLSLTCAISGDSVSSNSAAWNWIRQSPSRGLEWLGRTYYRSKWYKNYSVSVKSRITINPDTSKNQFSLQLNSVTPGDTAVYYCARGGPTAAFDYWGQGTLVTVSS
VL: LSALTQPASVSGSPGQSITISCTGTSSDVGNYNLVSWYQQYSGKAPKLMIYEVSKRPSGVSNRFSGSKSGNTASLTISGLQAEDEADYYCCSYAGSSTLVFGGGTKLTVL
Take B1: the binding result in assay [1] is “binds”; in assay [2] it was “no binding”.

B2: 30B9 (antibody, V domains shown)
VH: QVQLVQSGAEVKKPGASVKVSCKASGYPLTSYGISWVRQAPGQGLEWMGWISAYNGNTNYAQKVQGRVTMTTDTSTSTVYMELRSLRSDDTAVYYCARGYGMDVWGQGTTVTVSS
VL: QSALTQPASVSGSPGQSITISCTGTSSDVGGYNSVSWYQQHPGKPPKLMIYEVSNRPSGVSNRFSGSKSGNTASLTISGLQAEDEADYFCSSYTSTSMVFGGGTKLTVL
Turning to B2, the binding result is recorded as “binds” in assay [1] and “no binding” in assay [2].

B3: 19H9 (antibody, V domains shown)
VH: QVQLVQSGAEVKKPGASVKVSCKASGYALTSYGISWVRQAPGQGLEWMGWISAYNGNTNYAQKVQGRVTMTTDTSTSTVYMELRSLRSDDTAVYYCARGYGMDVWGQGTTVTVSS
VL: QSALTQPASVSGSPGQSITISCTGTNSDVGGYNSVSWYQQHPGKPPKLMIYEVSNRPSGISNRFSGSKSGNTASLTISGLQAEDEADYFCSSYTSTSMVFGGGTKLTVL
notes: also called 19H9.2
Regarding B3, the binding result in assay [1] was “binds”; in assay [2], “no binding”.

B4: 27E7 (antibody, V domains shown)
VH: QVQLVQSGAEVKKPGASLKVSCKASGYSLTSYGISWVRQAPGQGLEWMGWISAYNGNTNYAQKVQGRVTMTTDTSTSTVYMEVRSLRSDDTAVYYCARGYGMDVWGQGTTVTVSS
VL: QSALTQPASVSGSPGQSITISCTGTSSDVGGYNSVSWYQQHPGKPPKLMIYEVSNRPSGVSNRFSGSKSGNTASLTISGLQAEDEADYFCSSYTSTSMVFGGGTKLTVL
B4: the figures for the binding result in assay [1] and in assay [2] were “binds” and “no binding”, respectively.

B5: 27H5 (antibody, V domains shown)
VH: QVQLVQSGAEVKRPGASVKVSCKASGYTLTSYGISWVRQAPGQGLEWMGWISVYNGNTNYAQKVQGRVTMTTDTSTSTVYMELRSLSSDDTAVYYCARGYGMDVWGQGTTVTVSS
VL: QSALTQPASVSGSPGQSITISCTGTSSDVGGYNSVSWYQQHPGKPPKLMIYEVSNRPSGVSIRFSGSKSGNTASLTISGLQAEDEADYFCSSYTSTSMVFGGGTKLTVL
With B5, the binding result was “binds” in assay [1] and “no binding” in assay [2].

B6: 30A4 (antibody, V domains shown)
VH: QVQLVESGGGVVQPGRSLRLSCAASGFTFSSYGMHWVRQAPGKGLEWVAVIWYDGSDKYYADSVKGRFTISRDNSKNTLYLQMNSLRAEDTAVYYCARETGPLKLYYYGMDVWGQGTTVTVSS
VL: DIVMTQSPLSLSVTPGEPPSISCRSSQSLLHSNGYNFLNWYLQKPGQSPQLLIYLGSHRASGVPDRFSGSGSGTDFTLEISRVEAEDVGVYYCMQVLQTPFTFGPGTKVDIK
B6: the values for the binding result in assay [1] and in assay [2] were “binds” and “no binding”, respectively.

B7: 25G4 (antibody, V domains shown)
VH: EVQLLESGGGLVQPGGSLRLSCAASGFTFSSYAMNWVRQAPGKGLEWVSTISGSGGNTYYADSVKGRFTISRDNSKNTLYLQMNSLRAEDTAVYYCAKKFVLMVYAMLDYWGQGTLVTVSS
VL: DIQMTQSPSSLSASVGDRVTITCRASQSISIYLNWYQQKPGKAPYLLIYAAASLQSGVPSRFSGSGSGTDFTLTISSLQPEDFATYYCQQSYSAPITFGQGTRLEIK
In the case of B7, the binding result is given as “binds” in assay [1] and “no binding” in assay [2].
